# Laboratory results published in the supplement of paper PMC9428881.
# ± gives the standard error.
# Assay: background-corrected fluorescence of 3'-dye-labeled ssDNA relative to brightest sequence (3'-GCGCG) (fraction); higher = brighter dye fluorescence (less quenching)
# Outline: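 Arrays of single-stranded DNA, with a 3' Cy3 or Cy5 dye beside each of 1024 permuted pentamers, were built on glass slides through light-directed phosphoramidite synthesis. They were washed for 2 h at r.t. in acetonitrile and scanned at 532 or 635 nm, once before and once after overnight ethylenediamine/ethanol deprotection. Fluorescence is reported after subtracting unlabeled-oligo background and normalizing to the brightest sequence. Averages cover 10 features per array and at least 3 syntheses.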
Sequence,background-corrected fluorescence (dye: Cy3 (3' terminal)),background-corrected fluorescence (dye: Cy5 (3' terminal))
TTTTTGCATGCTCATGCTGATTTTTTTTTTTTTTTTAGAC [CAGAT],0.463 ± 0.023,0.369 ± 0.015
TTTTTTGATGATCAGCAGCATTTTTTTTTTTTTTTCCGTT [TTGCC],0.542 ± 0.036,0.446 ± 0.059
TTTTTGCATGCTGATGCTGCTTTTTTTTTTTTTTTTACAA [AACAT],0.538 ± 0.025,0.433 ± 0.059
TTTTTTCATCATGCTGATGCTTTTTTTTTTTTTTTGGACA [ACAGG],0.602 ± 0.022,0.435 ± 0.053
TTTTTTCATGATCAGCATCATTTTTTTTTTTTTTTGCGTG [GTGCG],0.577 ± 0.012,0.439 ± 0.023
TTTTTGCATCATGCTGCGCATTTTTTTTTTTTTTTTGAAT [TAAGT],0.558 ± 0.032,0.436 ± 0.035
TTTTTTCATGCTGAGCATGCTTTTTTTTTTTTTTTGACTA [ATCAG],0.491 ± 0.021,0.416 ± 0.029
TTTTTTGATGATGCGCAGCATTTTTTTTTTTTTTTCCATT [TTACC],0.541 ± 0.041,0.357 ± 0.02
TTTTTTCATGATGCTGATGCTTTTTTTTTTTTTTTGCACA [ACACG],0.483 ± 0.025,0.375 ± 0.026
TTTTTGCATCATGCTCATCATTTTTTTTTTTTTTTTGAGG [GGAGT],0.67 ± 0.013,0.529 ± 0.043
TTTTTTCATGCGCATGCTGATTTTTTTTTTTTTTTGATAC [CATAG],0.448 ± 0.026,0.334 ± 0.024
TTTTTTCATGCTCAGCAGCATTTTTTTTTTTTTTTGAGTT,0.621 ± 0.031,0.422 ± 0.024
TTTTTTGCTGATCAGCATGATTTTTTTTTTTTTTTACGTC [CTGCA],0.448 ± 0.016,0.373 ± 0.025
TTTTTGCAGCAGCAGCAGCATTTTTTTTTTTTTTTTTTTT,0.489 ± 0.032,0.34 ± 0.015
TTTTTTGATGATGATGATGATTTTTTTTTTTTTTTCCCCC,0.369 ± 0.018,0.251 ± 0.018
TTTTTTCATCATGATGCTGCTTTTTTTTTTTTTTTGGCAA [AACGG],0.5847 ± 0.005,0.504 ± 0.041
TTTTTTGCGCATCATGCGCATTTTTTTTTTTTTTTATGAT [TAGTA],0.615 ± 0.028,0.471 ± 0.03
TTTTTTGCGCATGCTGATGCTTTTTTTTTTTTTTTATACA [ACATA],0.492 ± 0.031,0.372 ± 0.024
TTTTTTCAGCATGCGCATGCTTTTTTTTTTTTTTTGTATA [ATATG],0.55 ± 0.031,0.404 ± 0.027
TTTTTTCATGCTCATGCTGCTTTTTTTTTTTTTTTGAGAA [AAGAG],0.645 ± 0.032,0.513 ± 0.026
TTTTTTCATGAGCATCATGATTTTTTTTTTTTTTTGCTGC [CGTCG],0.509 ± 0.031,0.403 ± 0.029
TTTTTGCATGCTGCGCAGCATTTTTTTTTTTTTTTTAATT,0.549 ± 0.014,0.377 ± 0.027
TTTTTTGCGCATGCGCATGATTTTTTTTTTTTTTTATATC [CTATA],0.438 ± 0.025,0.322 ± 0.017

Sequence,background-corrected fluorescence (dye: Cy3 (3' terminal)),background-corrected fluorescence (dye: Cy5 (3' terminal))
TTTTTTCATGATGATGATCATTTTTTTTTTTTTTTGCCCG,0.488 ± 0.0067,0.394 ± 0.045
TTTTTGCATCAGCATGCTGCTTTTTTTTTTTTTTTTGTAA [AATGT],0.596 ± 0.019,0.478 ± 0.03
TTTTTTGATGCGCATGATCATTTTTTTTTTTTTTTCATCG [GCTAC],0.543 ± 0.018,0.375 ± 0.026
TTTTTTGATCATGATCATGATTTTTTTTTTTTTTTCGCGC,0.759 ± 0.032,0.66 ± 0.052
TTTTTTGCTCATCAGCATGATTTTTTTTTTTTTTTAGGTC [CTGGA],0.459 ± 0.014,0.376 ± 0.019
TTTTTTGCTCATGCTGATCATTTTTTTTTTTTTTTAGACG [GCAGA],0.563 ± 0.031,0.443 ± 0.033
TTTTTGCATGATCATGCTGCTTTTTTTTTTTTTTTTCGAA [AAGCT],0.632 ± 0.0073,0.524 ± 0.043
TTTTTTGCGCAGCATCAGCATTTTTTTTTTTTTTTATTGT [TGTTA],0.589 ± 0.027,0.486 ± 0.037
TTTTTTCATCATGAGCATGATTTTTTTTTTTTTTTGGCTC [CTCGG],0.425 ± 0.028,0.337 ± 0.05
TTTTTTGATGAGCATGCGCATTTTTTTTTTTTTTTCCTAT [TATCC],0.486 ± 0.018,0.361 ± 0.028
TTTTTTGATGATCATGCTGATTTTTTTTTTTTTTTCCGAC [CAGCC],0.464 ± 0.024,0.374 ± 0.068
TTTTTTGCGCATGATCAGCATTTTTTTTTTTTTTTATCGT [TGCTA],0.605 ± 0.011,0.449 ± 0.027
TTTTTTCAGCATGATCAGCATTTTTTTTTTTTTTTGTCGT [TGCTG],0.581 ± 0.021,0.451 ± 0.032
TTTTTTGATCATGATGCTCATTTTTTTTTTTTTTTCGCAG [GACGC],0.595 ± 0.025,0.446 ± 0.029
TTTTTTGATCATCATGCTGATTTTTTTTTTTTTTTCGGAC [CAGGC],0.531 ± 0.011,0.389 ± 0.034
TTTTTTGCTGCGCATGCGCATTTTTTTTTTTTTTTAATAT [TATAA],0.54 ± 0.022,0.413 ± 0.036
TTTTTTGATGCTGAGCAGCATTTTTTTTTTTTTTTCACTT,0.498 ± 0.016,0.351 ± 0.022
TTTTTTCATGATCATGAGCATTTTTTTTTTTTTTTGCGCT [TCGCG],0.623 ± 0.022,0.485 ± 0.025
TTTTTTGCTGAGCATGAGCATTTTTTTTTTTTTTTACTCT [TCTCA],0.421 ± 0.0073,0.331 ± 0.022
TTTTTTGATGCTCATGATGCTTTTTTTTTTTTTTTCAGCA [ACGAC],0.514 ± 0.019,0.448 ± 0.027
TTTTTTGATGAGCATGATGCTTTTTTTTTTTTTTTCCTCA [ACTCC],0.493 ± 0.0056,0.377 ± 0.042
TTTTTTCATCATGCTGATCATTTTTTTTTTTTTTTGGACG [GCAGG],0.567 ± 0.016,0.455 ± 0.019
TTTTTTCATGATCATGCTGCTTTTTTTTTTTTTTTGCGAA [AAGCG],0.666 ± 0.028,0.525 ± 0.028

Sequence,background-corrected fluorescence (dye: Cy3 (3' terminal)),background-corrected fluorescence (dye: Cy5 (3' terminal))
TTTTTTCAGCATGATCATCATTTTTTTTTTTTTTTGTCGG [GGCTG],0.666 ± 0.025,0.506 ± 0.027
TTTTTGCATGATCAGCAGCATTTTTTTTTTTTTTTTCGTT [TTGCT],0.55 ± 0.029,0.417 ± 0.026
TTTTTGCATCATGCTCATGATTTTTTTTTTTTTTTTGAGC [CGAGT],0.556 ± 0.024,0.422 ± 0.08
TTTTTTGATGCTGATCATGATTTTTTTTTTTTTTTCACGC [CGCAC],0.536 ± 0.021,0.438 ± 0.036
TTTTTGCATCATGATGAGCATTTTTTTTTTTTTTTTGCCT [TCCGT],0.444 ± 0.011,0.356 ± 0.021
TTTTTGCATGATCAGCATGCTTTTTTTTTTTTTTTTCGTA,0.59 ± 0.023,0.457 ± 0.043
TTTTTGCATGATGCTGAGCATTTTTTTTTTTTTTTTCACT,0.447 ± 0.036,0.334 ± 0.02
TTTTTTGATCATCAGCATCATTTTTTTTTTTTTTTCGGTG [GTGGC],0.574 ± 0.02,0.484 ± 0.031
TTTTTGCATCAGCATCATGATTTTTTTTTTTTTTTTGTGC [CGTGT],0.494 ± 0.0099,0.402 ± 0.027
TTTTTGCATCATGATCATGCTTTTTTTTTTTTTTTTGCGA [AGCGT],0.675 ± 0.036,0.616 ± 0.044
TTTTTGCATCATGCGCAGCATTTTTTTTTTTTTTTTGATT [TTAGT],0.579 ± 0.035,0.419 ± 0.05
TTTTTTCATGAGCAGCATGATTTTTTTTTTTTTTTGCTTC [CTTCG],0.388 ± 0.041,0.285 ± 0.024
TTTTTTGATGCGCATGAGCATTTTTTTTTTTTTTTCATCT [TCTAC],0.48 ± 0.021,0.33 ± 0.034
TTTTTTGATGCTCAGCATCATTTTTTTTTTTTTTTCAGTG [GTGAC],0.61 ± 0.026,0.463 ± 0.025
TTTTTGCATGATGCTGCTGATTTTTTTTTTTTTTTTCAAC [CAACT],0.429 ± 0.0094,0.318 ± 0.025
TTTTTTGATCATCATGAGCATTTTTTTTTTTTTTTCGGCT,0.583 ± 0.016,0.431 ± 0.021
TTTTTTGATCATGAGCATGATTTTTTTTTTTTTTTCGCTC [CTCGC],0.452 ± 0.039,0.318 ± 0.024
TTTTTTCAGCATGCTCATGCTTTTTTTTTTTTTTTGTAGA [AGATG],0.671 ± 0.021,0.533 ± 0.039
TTTTTTGATGCTGATGATGATTTTTTTTTTTTTTTCACCC [CCCAC],0.37 ± 0.028,0.271 ± 0.019
TTTTTGCATGATGCTGCGCATTTTTTTTTTTTTTTTCAAT [TAACT],0.554 ± 0.027,0.386 ± 0.019
TTTTTTGCGCAGCATGATGATTTTTTTTTTTTTTTATTCC [CCTTA],0.404 ± 0.016,0.272 ± 0.02
TTTTTGCAGCATGCTGCTGCTTTTTTTTTTTTTTTTTAAA [AAATT],0.63 ± 0.021,0.487 ± 0.042
TTTTTGCATGCTGCTGCGCATTTTTTTTTTTTTTTTAAAT,0.612 ± 0.027,0.454 ± 0.038
